US20170021001A1

Biological target: TCRs of Du51-specific CD8^+CD45RC^low Tregs (CD8^+CD40Ig Tregs) (rat)
Assay: cell-based or functional assay

| Binder | CD25 expression at the cell surface of CD8^+CD40Ig Tregs, fold vs. no peptide (6 days coculture with matured syngeneic pDCs) (fold vs. no peptide) | CD25 upregulation on CD8^+CD40Ig Tregs, fold vs. no peptide (fold vs. no peptide) |
| --- | --- | --- |
| NREEYARFDSDVGEYR [peptide Du51 (…)] | 2.07 | – |
| REEYARFDSDVGEYR [peptide 51-18 (…)] | – | 2.04 |
| YLRYDSDVGEYRAVTE [peptide Bu31 (…)] | 1.67 | – |
